From patent US20180037651A1 (Janssen / Centocor, published 2018)
Changes are numbered by the printed parent chain. Names and notes keep the numbering of the source.

T1: cyno GPRC5D (cyno, UniProt Q9NZD1 1-343 (human entry))
T1 construct: on transfected HEK293F or Daudi cells; also called cynomolgus monkey GPRC5D
T1 chain: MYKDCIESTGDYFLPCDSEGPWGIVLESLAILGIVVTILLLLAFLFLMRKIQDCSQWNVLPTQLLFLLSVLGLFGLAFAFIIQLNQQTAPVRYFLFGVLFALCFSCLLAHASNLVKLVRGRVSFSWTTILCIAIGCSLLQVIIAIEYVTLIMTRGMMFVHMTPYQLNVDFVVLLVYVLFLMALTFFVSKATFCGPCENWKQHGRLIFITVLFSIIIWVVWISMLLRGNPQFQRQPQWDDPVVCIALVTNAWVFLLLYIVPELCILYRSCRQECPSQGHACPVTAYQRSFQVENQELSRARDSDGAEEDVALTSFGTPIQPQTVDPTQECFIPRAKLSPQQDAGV

B1: GC5B474 (antibody, V domains shown)
VH: EVQLVQSGAEVKKPGESLKISCKGSGYSFTSYGIGWVRQMPGKGLEWMGIIYPGASDTRYSPSFQGQVTISADKSISTAYLQWSSLKASDTAMYYCARVYSFGGRHKALFDYWGQGTLVTVSS
VL: EIVLTQSPATLSLSPGERATLSCRASQSVSSYLAWYQQKPGQAPRLLIYDASNRATGIPARFSGSGSGTDFTLTISSLEPEDFAVYYCQQRSNWPLTFGQGTKVEIK
notes: GC5B164 PTM variant; also called GC5H275
B2: GC5B490 (antibody, V domains shown)
VH: B1 VH with G33A, A55E
VL: B1 VL
notes: GC5B164 PTM variant; also called GC5H259
B3: GC5B480 (antibody, V domains shown)
VH: B1 VH with G33A, A55S
VL: B1 VL
notes: GC5B164 PTM variant; also called GC5H269
B4: GC5B485 (antibody, V domains shown)
VH: B1 VH with G33A, A55K
VL: B1 VL
notes: GC5B164 PTM variant; also called GC5H264
B5: GC5B483 (antibody, IgG4, V domains shown)
VH: B1 VH with G33F, A55K
VL: B1 VL
notes: GC5B164 PTM variant D55K, W33F; IgG4 S228P, L234A, L235A; also called GC5H266
B6: GC5B494 (antibody, V domains shown)
VH: B1 VH with A55Y
VL: B1 VL
notes: GC5B164 PTM variant; also called GC5H255
B7: GC5B503 (antibody, V domains shown)
VH: B1 VH with G33W, A55K
VL: B1 VL
notes: GC5B164 PTM variant; also called GC5H246
B8: GC5B487 (antibody, V domains shown)
VH: B1 VH with G33V, A55E
VL: B1 VL
notes: GC5B164 PTM variant; also called GC5H262
B9: GC5B498 (antibody, V domains shown)
VH: B1 VH with G33F, A55D
VL: B1 VL
notes: GC5B164 PTM variant; also called GC5H251
B10: GC5B478 (antibody, V domains shown)
VH: B1 VH with G33F, A55S
VL: B1 VL
notes: GC5B164 PTM variant; also called GC5H271
B11: GC5B488 (antibody, V domains shown)
VH: B1 VH with G33F, A55E
VL: B1 VL
notes: GC5B164 PTM variant; also called GC5H261
B12: GC5B493 (antibody, V domains shown)
VH: B1 VH with G33F, A55Y
VL: B1 VL
notes: GC5B164 PTM variant; also called GC5H256
B13: GC5B481 (antibody, V domains shown)
VH: B1 VH with G33Y, A55K
VL: B1 VL
notes: GC5B164 PTM variant; also called GC5H268
B14: GC5B496 (antibody, V domains shown)
VH: B1 VH with G33Y, A55D
VL: B1 VL
notes: GC5B164 PTM variant; also called GC5H253
B15: GC5B486 (antibody, V domains shown)
VH: B1 VH with G33Y, A55E
VL: B1 VL
notes: GC5B164 PTM variant; also called GC5H263
B16: GC5B504 (antibody, V domains shown)
VH: B1 VH with G33W, A55E
VL: B1 VL
notes: GC5B164 PTM variant; also called GC5H245
B17: GC5B495 (antibody, V domains shown)
VH: B1 VH with G33A, A55Y
VL: B1 VL
notes: GC5B164 PTM variant; also called GC5H254
B18: GC5B502 (antibody, V domains shown)
VH: B1 VH with G33W, A55S
VL: B1 VL
notes: GC5B164 PTM variant; also called GC5H247
B19: GC5B477 (antibody, V domains shown)
VH: B1 VH with G33V, A55S
VL: B1 VL
notes: GC5B164 PTM variant; also called GC5H272
B20: GC5B476 (antibody, V domains shown)
VH: B1 VH with G33Y, A55S
VL: B1 VL
notes: GC5B164 PTM variant; also called GC5H273
B21: GC5B505 (antibody, V domains shown)
VH: B1 VH with G33W, A55Y
VL: B1 VL
notes: GC5B164 PTM variant; also called GC5H244
B22: GC5B492 (antibody, V domains shown)
VH: B1 VH with G33V, A55Y
VL: B1 VL
notes: GC5B164 PTM variant; also called GC5H257
B23: GC5B501 (antibody, V domains shown)
VH: B1 VH with G33W
VL: B1 VL
notes: GC5B164 PTM variant; also called GC5H248
B24: GC5B475 (antibody, V domains shown)
VH: B1 VH with G33A
VL: B1 VL
notes: GC5B164 PTM variant; also called GC5H274
B25: GC5B472 (antibody, V domains shown)
VH: B1 VH with G33V
VL: B1 VL
notes: GC5B164 PTM variant; also called GC5H277
B26: GC5B497 (antibody, V domains shown)
VH: B1 VH with G33V, A55D
VL: B1 VL
notes: GC5B164 PTM variant; also called GC5H252
B27: GC5B491 (antibody, V domains shown)
VH: B1 VH with G33Y, A55Y
VL: B1 VL
notes: GC5B164 PTM variant; also called GC5H258
B28: GC5B482 (antibody, V domains shown)
VH: B1 VH with G33V, A55K
VL: B1 VL
notes: GC5B164 PTM variant; also called GC5H267
B29: GC5B473 (antibody, V domains shown)
VH: B1 VH with G33F
VL: B1 VL
notes: GC5B164 PTM variant; also called GC5H276
B30: GC5B484 (antibody, V domains shown)
VH: B1 VH with A55K
VL: B1 VL
notes: GC5B164 PTM variant; also called GC5H265
B31: GC5B479 (antibody, V domains shown)
VH: B1 VH with A55S
VL: B1 VL
notes: GC5B164 PTM variant; also called GC5H270
B32: GC5B331 (antibody, V domains shown)
VH: EVQLVQSGAEVKKPGESLKISCKGSGYSFTSYWIGWVRQMPGKGLEWMGIIYPGDSDTRYSPSFQGQVTISADKSISTAYLQWSSLKASDTAMYYCARIGFYGRSFRIFDYWGQGTLVTVSS
VL: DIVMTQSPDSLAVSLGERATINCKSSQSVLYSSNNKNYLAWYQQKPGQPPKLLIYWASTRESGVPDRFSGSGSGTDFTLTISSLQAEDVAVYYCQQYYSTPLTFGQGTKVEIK
notes: GC5H35+PH9L2
B33: GC5B333 (printed with GC5H35) (antibody, V domains shown)
VH: B32 VH
VL: not shown
notes: GC5H35+PH9L4
B34: GC5B253 (antibody, V domains shown)
VH: QVQLVQSGAEVKKPGSSVKVSCKASGGTFSSYGISWVRQAPGQGLEWMGGIIPIFGNINYAQKFQGRVTITADESTSTAYMELSSLRSEDTAVYYCARVSRRFKRFAYYFDYWGQGTLVTVSS
VL: not shown
notes: GC5H42+PH9L4
B35: GC5B243 (antibody, IgG1, V domains shown)
VH: EVQLLESGGGLVQPGGSLRLSCAASGFTFSDYGMHWVRQAPGKGLEWVSAIKYSGGSTYYADSVKGRFTISRDNSKNTLYLQMNSLRAEDTAVYYCAKRAESGPGLDYWGQGTLVTVSS
VL: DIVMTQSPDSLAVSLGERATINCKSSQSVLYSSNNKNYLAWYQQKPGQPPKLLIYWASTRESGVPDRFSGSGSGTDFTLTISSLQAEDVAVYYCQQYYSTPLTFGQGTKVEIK
notes: human IgG4PAA
B36: GC5B80 (antibody, V domains shown)
VH: not shown
VL: B1 VL
notes: GC5H40+PH9L3
B37: GC5B332 (printed with GC5H89) (antibody, V domains shown)
VH: B32 VH
VL: B1 VL
B38: GC5B284 (antibody, V domains shown)
VH: not shown
VL: B1 VL
notes: GC5H14+PH9L3
B39: GC5B320 (printed with GC5H92) (antibody, V domains shown)
VH: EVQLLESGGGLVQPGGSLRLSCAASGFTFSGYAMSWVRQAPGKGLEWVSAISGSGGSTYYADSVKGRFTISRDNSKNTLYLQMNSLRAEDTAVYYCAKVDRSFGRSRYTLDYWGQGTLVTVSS
VL: B1 VL
B40: GC5B320 (antibody, IgG1, V domains shown)
VH: not shown
VL: B1 VL
notes: GC5H58+PH9L3 (L6); human IgG4PAA

Target: T2, human GPRC5D (human, UniProt Q9NZD1 1-345)
T2 construct: on transfected HEK293/RBL cells or endogenous on myeloma cells (H929, MM1R, OPM2, LP1, JIM3, patient plasma cells); also called G protein-coupled receptor class C group 5 member D; hGPRC5D
T2 sequence (Q9NZD1 whole entry): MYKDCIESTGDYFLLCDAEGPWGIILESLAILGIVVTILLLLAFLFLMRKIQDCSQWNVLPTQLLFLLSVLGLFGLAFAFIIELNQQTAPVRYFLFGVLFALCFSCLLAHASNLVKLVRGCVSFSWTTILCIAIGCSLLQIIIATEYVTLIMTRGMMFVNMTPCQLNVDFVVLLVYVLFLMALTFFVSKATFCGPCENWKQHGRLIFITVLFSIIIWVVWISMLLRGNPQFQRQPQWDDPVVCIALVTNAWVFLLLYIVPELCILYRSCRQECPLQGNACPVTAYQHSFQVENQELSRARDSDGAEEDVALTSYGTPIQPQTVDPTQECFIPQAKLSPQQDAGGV
Experiment: FACS, human GPRC5D cells

| MFI [mfi] | Binder |
| --- | --- |
| 1000 to 10000 | B1 |
| 1000 to 10000 | B2 |
| 1000 to 10000 | B3 |
| 1000 to 10000 | B4 |
| > 10000 | B5 |
| 1000 to 10000 | B6 |
| > 10000 | B7 |
| 1000 to 10000 | B8 |
| > 10000 | B9 |
| > 10000 | B10 |
| > 10000 | B11 |
| > 10000 | B12 |
| > 10000 | B13 |
| > 10000 | B14 |
| > 10000 | B15 |
| > 10000 | B16 |

| MFI [mfi] | Binder |
| --- | --- |
| 1000 to 10000 | B17 |
| > 10000 | B18 |
| 1000 to 10000 | B19 |
| > 10000 | B20 |
| > 10000 | B21 |
| > 10000 | B22 |
| > 10000 | B23 |
| 1000 to 10000 | B24 |
| 1000 to 10000 | B25 |
| > 10000 | B26 |
| > 10000 | B27 |
| > 10000 | B28 |
| > 10000 | B29 |
| 1000 to 10000 | B30 |
| 1000 to 10000 | B31 |

Target: T1, cyno GPRC5D
Experiment: FACS, cyno GPRC5D cells, 1 ug/ml
Experimental: Whole cell phage panning was completed using the human GPRC5D cells as antigen, as described above. […] These mAbs were initially evaluated for binding to cyno GPRC5D using FACS. […] Briefly, FACS screening was performed by normalizing protein concentration to 1 ug/ml and 100 ul of protein was mixed with 200,000 cells per well. The mAb was allowed to incubate with cells for 1 hour at 4° C. The cells were then washed three times with PBS and 0.2% FBS. […] The cells and secondary antibody were incubated for 1 hour at 4° C. The cells were then washed three times with PBS and 0.2% FBS. The cells were washed again using PBS and 0.2% FBS and then analyzed on FACSarry.

| MFI [MFI] | Binder |
| --- | --- |
| 552 | B32 |
| 1590 | B33 |
| 574 | B34 |
| 117000 | B35 |
| 428 | B36 |
| 299 | B37 |
| 249 | B38 |
| 297 | B39 |
| 49600 | B40 |

Target: T1, cyno GPRC5D
Experiment: FACS, cyno GPRC5D HEK293F cells

| MFI [MFI] | Binder |
| --- | --- |
| 67800 | B35 |
| 63300 | B40 |

Target: T2, human GPRC5D
Experiment: FACS, human GPRC5D HEK293F cells

| MFI [MFI] | Binder |
| --- | --- |
| 20500 | B35 |
| 22900 | B40 |
